Data on one protein can be found in paper doi:10.1101/2021.03.07.433908 (bioRxiv, 2021).

This data set deals with the molecule itself. The experiment in a line: pulsed field gradient diffusion NMR.

B1: Human αB-crystallin (natural protein)
chain: MDIAIHHPWIRRPFFPFHSPSRLFDQFFGEHLLESDLFPTSTSLSPFYLRPPSFLRAPSWFDTGLSEMRLEKDRFSVNLDVKHFSPEELKVKVLGDVIEVHGKHEERQDEHGFISREFHRKYRIPADVDPLTITSSLSSDGVLTVNGPRKQVSGPERTIPITREEKPAVTAAPKK
modifications: 15N labelled (HSQC spectra); 2H/13CH3 Ile δ1, Val γ1/γ2, Leu δ1/δ2 labelled (binding studies and diffusion analyses)
The stoichiometry N is the number of molecules, sites or subunits per partner or assembly. Take B1: the “stoichiometry N” value is 28.
